Earlier results on three molecules are cited in patent US12370207B2, “Low-intensity treatment of hematological disorders” (Celator Pharmaceuticals, Inc., priority 2018, dated 2025).

Data set [1] concerns hematological malignancies. The settings on record: single agent, ISICT patients.
The conditions of data set [2]: population mean.

As to `Nc1ccn([C@@H]2O[C@H](CO)[C@@H](O)[C@@H]2O)c(=O)n1` [LDAC], in data set [1], the median overall survival is on record as 7-10 months and the response rates entry is listed as “less than 20%”.

B1: Pegfilgrastim: exogenous (recombinant) GCSF agent (protein, UniProt P09919 31-207, looked up)
Granulocyte …: TPLGPASSLPQSFLLKCLEQVRKIQGDGAALQEKLVSECATYKLCHPEELVLLGHSLGIPWAPLSSCPSQALQLAGCLSQLHSGLFLYQGLLQALEGISPELGPTLDTLQLDVADFATTIWQQMEELGMAPALQPTQGAMPAFASAFQRRAGGVLVASHLQSFLEVSYRVLRHLAQP
modifications: PEGylated, N-terminal Met (pegfilgrastim)
notes: exogenous (recombinant) GCSF agent
On to B1, for which the “Fi, bioavailability of first-order absorption process” value in data set [2] is 0.646. Also, in data set [2] (coefficient of equation (WTKG/70)^0.641), the “CL, clearance” value is 0.362 · (WTKG/70)^0.641 L/h.

B2: Filgrastim: exogenous (recombinant) GCSF agent (protein, UniProt P09919 31-207, looked up)
Granulocyte …: TPLGPASSLPQSFLLKCLEQVRKIQGDGAALQEKLVSECATYKLCHPEELVLLGHSLGIPWAPLSSCPSQALQLAGCLSQLHSGLFLYQGLLQALEGISPELGPTLDTLQLDVADFATTIWQQMEELGMAPALQPTQGAMPAFASAFQRRAGGVLVASHLQSFLEVSYRVLRHLAQP
modifications: N-terminal Met (filgrastim)
notes: as for B1
Consider B2, for which the “Fi, bioavailability of first-order absorption process” value in data set [2] is recorded as 0.105.
